Consider 61 substances from patent US10227388B2, “Peptides and combination of peptides for use in immunotherapy against non-small cell lung cancer and other cancers” (immatics biotechnologies GmbH, priority 2015, dated 2019).

The target of the assay is HLA-A*02:01 (Homo sapiens, UniProt P04439, D140Y/D185E/D98H/E176V/E277Q/G131W/G231S/I119V/I121R/I166T/I218V/L300P/L318F/N151K/N90K/P208A/P217A/Q86G/Q94H/R138H/R169H/T345S). Nature of the assay: MHC binding assay (UV-ligand exchange, ELISA, peptide exchange yield). The following applies: binding of HLA-class I restricted peptides to HLA-A*02:01. In a few lines:
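Peptide–HLA-A*02:01 complexes made by UV-ligand exchange of a UV-cleavable peptide for the test peptide. Exchange yield measured by ELISA: 100-fold diluted monomers captured on streptavidin, 1 h at 37° C., detected with HRP anti-β2m and TMB, absorbance at 450 nm.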
Background: In an ELISA, binding on a coated surface is turned into a signal by an enzyme label.
“244 (SLFGGTEITI; listed as Homo sapiens) [compound 244]”: the “Peptide exchange (MHC class I binding score, peptide exchange yield)” value (shortened to “Peptide exchange”) is on record as “″+++″ (≥50% = +++)”.

In the case of “245 (SMIDDLLGV; listed as Homo sapiens) [compound 245]”, the “Peptide exchange” value is “″+++″ (≥50% = +++)”.

Take “246 (LLWEVVSQL; listed as Homo sapiens) [compound 246]”: the “Peptide exchange” value is “″+++″ (≥50% = +++)”.

For the substance “248 (FLFPNQYVDV; listed as Homo sapiens) [compound 248]”, the “Peptide exchange” value is reported as “″+++″ (≥50% = +++)”.

On to “249 (LLDGFLVNV; listed as Homo sapiens) [compound 249]”, for which the “Peptide exchange” value is on record as “″+++″ (≥50% = +++)”.

For the substance “250 (ALSEEGLLVYL; listed as Homo sapiens) [compound 250]”, the “Peptide exchange” value is reported as “″+++″ (≥50% = +++)”.

Take “251 (ALYTGFSILV; listed as Homo sapiens) [compound 251]”: the “Peptide exchange” value was “″++″ (≥20% = ++)”.

As for “252 (LLIGTDVSL; listed as Homo sapiens) [compound 252]”, the “Peptide exchange” value is “″+++″ (≥50% = +++)”.

For “253 (GLDAATATV; listed as Homo sapiens) [compound 253]”, the “Peptide exchange” value is on record as “″++″ (≥20% = ++)”.

As to “254 (TLLAFIMEL; listed as Homo sapiens) [compound 254]”, the “Peptide exchange” value is on record as “″+++″ (≥50% = +++)”.

For the substance “255 (VLASYNLTV; listed as Homo sapiens) [compound 255]”, the “Peptide exchange” value is on record as “″+++″ (≥50% = +++)”.

Take “256 (FLPPEHTIVYI; listed as Homo sapiens) [compound 256]”: the “Peptide exchange” value is “″+++″ (≥50% = +++)”.

“257 (SIFSAFLSV; listed as Homo sapiens) [compound 257]”: the “Peptide exchange” value is on record as “″+++″ (≥50% = +++)”.

Turning to “258 (ELAERVPAI; listed as Homo sapiens) [compound 258]”, the “Peptide exchange” value was “″++″ (≥20% = ++)”.

For the substance “261 (YVLEFLEEI; listed as Homo sapiens) [compound 261]”, the “Peptide exchange” value is “″++″ (≥20% = ++)”.

Turning to “262 (LLWGDLIWL; listed as Homo sapiens) [compound 262]”, the “Peptide exchange” value is listed as “″+++″ (≥50% = +++)”.

With “263 (LLVSNLDFGV; listed as Homo sapiens) [compound 263]”, the “Peptide exchange” value is recorded as “″+++″ (≥50% = +++)”.

For “264 (SLQEQLHSV; listed as Homo sapiens) [compound 264]”, the “Peptide exchange” value was “″+++″ (≥50% = +++)”.

In the case of “265 (LLFGGTKTV; listed as Homo sapiens) [compound 265]”, the “Peptide exchange” value is given as “″++″ (≥20% = ++)”.

As to “266 (KITDTLIHL; listed as Homo sapiens) [compound 266]”, the “Peptide exchange” value is “″+++″ (≥50% = +++)”.

With “267 (ALQDFLLSV; listed as Homo sapiens) [compound 267]”, the “Peptide exchange” value is listed as “″+++″ (≥50% = +++)”.

For “269 (RVLEVGALQAV; listed as Homo sapiens) [compound 269]”, the “Peptide exchange” value was “″++″ (≥20% = ++)”.

As for “270 (LLLDEEGTFSL; listed as Homo sapiens) [compound 270]”, the “Peptide exchange” value is reported as “″++″ (≥20% = ++)”.

In the case of “271 (LVYPLELYPA; listed as Homo sapiens) [compound 271]”, the “Peptide exchange” value is recorded as “″+++″ (≥50% = +++)”.

On to “272 (ALGNTVPAV; listed as Homo sapiens) [compound 272]”, for which the “Peptide exchange” value is recorded as “″+++″ (≥50% = +++)”.

Take “273 (NLFQSVREV; listed as Homo sapiens) [compound 273]”: the “Peptide exchange” value is listed as “″++″ (≥20% = ++)”.

As for “274 (SLLFSLFEA; listed as Homo sapiens) [compound 274]”, the “Peptide exchange” value is “″++″ (≥20% = ++)”.

On to “275 (YLVYILNEL; listed as Homo sapiens) [compound 275]”, for which the “Peptide exchange” value is “″++″ (≥20% = ++)”.

Take “276 (ALFTFSPLTV; listed as Homo sapiens) [compound 276]”: the “Peptide exchange” value was “″+++″ (≥50% = +++)”.

Consider “277 (LLPPLESLATV; listed as Homo sapiens) [compound 277]”, for which the “Peptide exchange” value is recorded as “″++″ (≥20% = ++)”.

Turning to “278 (QLLDVVLTI; listed as Homo sapiens) [compound 278]”, the “Peptide exchange” value was “″++″ (≥20% = ++)”.

Regarding “279 (ALWGGTQPLL; listed as Homo sapiens) [compound 279]”, the “Peptide exchange” value is recorded as “″++″ (≥20% = ++)”.

On to “280 (VLPDPEVLEAV; listed as Homo sapiens) [compound 280]”, for which the “Peptide exchange” value is listed as “″+++″ (≥50% = +++)”.

Take “281 (ILRESTEEL; listed as Homo sapiens) [compound 281]”: the “Peptide exchange” value is on record as “″+++″ (≥50% = +++)”.

With “282 (LLADVVPTT; listed as Homo sapiens) [compound 282]”, the “Peptide exchange” value was “″+++″ (≥50% = +++)”.

For the substance “284 (ILLSQTTGV; listed as Homo sapiens) [compound 284]”, the “Peptide exchange” value is recorded as “″+++″ (≥50% = +++)”.

“285 (QLLHVGVTV; listed as Homo sapiens) [compound 285]”: the “Peptide exchange” value was “″+++″ (≥50% = +++)”.

Take “286 (YLFPGIPEL; listed as Homo sapiens) [compound 286]”: the “Peptide exchange” value was “″+++″ (≥50% = +++)”.

On to “287 (FLNEFFLNV; listed as Homo sapiens) [compound 287]”, for which the “Peptide exchange” value is on record as “″+++″ (≥50% = +++)”.

In the case of “288 (NLINEINGV; listed as Homo sapiens) [compound 288]”, the “Peptide exchange” value is “″+++″ (≥50% = +++)”.

With “289 (VLLEIEDLQV; listed as Homo sapiens) [compound 289]”, the “Peptide exchange” value is “″++++″ (≥75% = ++++)”.

Take “295 (VLDRESPNV; listed as Homo sapiens) [compound 295]”: the “Peptide exchange” value was “″+++″ (≥50% = +++)”.

With “296 (FMEGAIIYV; listed as Homo sapiens) [compound 296]”, the “Peptide exchange” value is reported as “″+++″ (≥50% = +++)”.

As to “297 (VLADIELAQA; listed as Homo sapiens) [compound 297]”, the “Peptide exchange” value was “″+++″ (≥50% = +++)”.

Consider “298 (VMITKLVEV; listed as Homo sapiens) [compound 298]”, for which the “Peptide exchange” value is listed as “″+++″ (≥50% = +++)”.

On to “299 (YLLETSGNL; listed as Homo sapiens) [compound 299]”, for which the “Peptide exchange” value is on record as “″+++″ (≥50% = +++)”.

Consider “300 (ALLGQTFSL; listed as Homo sapiens) [compound 300]”, for which the “Peptide exchange” value is “″+++″ (≥50% = +++)”.

With “301 (FLVEDLVDSL; listed as Homo sapiens) [compound 301]”, the “Peptide exchange” value was “″+++″ (≥50% = +++)”.

As to “302 (ALLQEGEVYSA; listed as Homo sapiens) [compound 302]”, the “Peptide exchange” value was “″+++″ (≥50% = +++)”.

With “303 (AILPQLFMV; listed as Homo sapiens) [compound 303]”, the “Peptide exchange” value is listed as “″++++″ (≥75% = ++++)”.

For “304 (MTLGQIYYL; listed as Homo sapiens) [compound 304]”, the “Peptide exchange” value was “″+++″ (≥50% = +++)”.

Turning to “305 (SIANFSEFYV; listed as Homo sapiens) [compound 305]”, the “Peptide exchange” value was “″++++″ (≥75% = ++++)”.

Take “306 (ALVNVQIPL; listed as Homo sapiens) [compound 306]”: the “Peptide exchange” value is on record as “″+++″ (≥50% = +++)”.

With “307 (ALPVSLPQI; listed as Homo sapiens) [compound 307]”, the “Peptide exchange” value is given as “″+++″ (≥50% = +++)”.

As for “308 (SQYSGQLHEV; listed as Homo sapiens) [compound 308]”, the “Peptide exchange” value is recorded as “″+++″ (≥50% = +++)”.

For “309 (GLFDGVPTTA; listed as Homo sapiens) [compound 309]”, the “Peptide exchange” value was “″+++″ (≥50% = +++)”.

“310 (FLVDTPLARA; listed as Homo sapiens) [compound 310]”: the “Peptide exchange” value is recorded as “″++++″ (≥75% = ++++)”.

Regarding “311 (RLYTGMHTV; listed as Homo sapiens) [compound 311]”, the “Peptide exchange” value is “″+++″ (≥50% = +++)”.

As to “312 (IISDLTIAL; listed as Homo sapiens) [compound 312]”, the “Peptide exchange” value was “″+++″ (≥50% = +++)”.

Turning to “313 (VLFDDELLMV; listed as Homo sapiens) [compound 313]”, the “Peptide exchange” value is given as “″+++″ (≥50% = +++)”.

As to “314 (ALIAEGIALV; listed as Homo sapiens) [compound 314]”, the “Peptide exchange” value is listed as “″+++″ (≥50% = +++)”.
